US20220267414A1

Columns and labels:
[1] = biological target: canine parvovirus CPV-2b (canine parvovirus CPV-2b); assay: cell-based or functional assay
[2] = biological target: recombinant canine parvovirus CPV2b capsid (Advanced ImmunoChemical Inc Cat #8-CPV) (canine parvovirus CPV2b); assay: BLI (Octet), biotinylated antibody on streptavidin tips, VLP at 40 µg/mL as analyte, 1:1 fit

Row | Molecule | CPV-2b HI (hemagglutination inhibition) [1] | Kd [2] [nM]
1 | irrelevant canine IgG (antibody) | < 20 | –
2 | Chimeric Canine Mab B v2 (antibody, V domains shown) VH: QVQLKESGPGLVQPSETLSLTCTVSGFSLTSYGVSWVRQPPGKGLEWMGTMWNDGDTDYNSALRSKLSISRDTSKSQVFLKMNSLQTEDTAIYYCARSQLPGYNLRGWFVYWGQGTLVIVSA VL: DIQMTQSPPVLSASVGDRVTLSCKASHNINKNLEWYQQKLGEAPKLLIYYANNLQTGIPSRFSGSGSGTDYTLTISSLQPEDVATYYCYQYNSGHTFGAGTKLEIKR | – | 0.00938
3 | Chimeric Canine Mab A v2 (antibody) heavy: QVQLKESGPGLVAPSQTLSLTCTVSGFSLSSYHVHWVRQPPGKGLEWLGVMWNDGDTSYNLALNSRLSISRDTSKSQVFFKMSSLQTEDTATYYCARPELPGLTYGVWFPYWGQGTLVTVSAASTTAPSVFPLAPSCGSTSGSTVALACLVSGYFPEPVTVSWNSGSLTSGVHTFPSVLQSSGLYSLSSMVTVPSSRWPSETFTCNVAHPASKTKVDKPVPKRENGRVPRPPDCPKCPAPEMLGGPSVFIFPPKPKDTLLIARTPEVTCVVVDLDPEDPEVQISWFVDGKQMQTAKTQPREEQFNGTYRVVSVLPIGHQDWLKGKQFTCKVNNKALPSPIERTISKARGQAHQPSVYVLPPSREELSKNTVSLTCLIKDFFPPDIDVEWQSNGQQEPESKYRTTPPQLDEDGSYFLYSKLSVDKSRWQRGDTFICAVMHEALHNHYTQESLSHSPGK light: DIVMTQTPASMSISVGDRVTMNCKASQNVDSNVDWYQQKTGQSPNLLIYKASNRNTGVPDRFTGSGSGTDFTFTISNMQAEDLAVYYCMQSTSYPLTFGSGTKLEIKRNDAQPAVYLFQPSPDQLHTGSASVVCLLNSFYPKDINVKWKVDGVIQDTGIQESVTEQDKDSTYSLSSTLTMSSTEYLSHELYSCEITHKSLPSTLIKSFQRSECQRVD | – | 0.0978
